In the DeepSol protein solubility set:

Test: soluble on expression in E. coli; label from the status in PepcDB or PDB records

Sequence | soluble on expression in E. coli
MSLKIVVTKFGGSSLADSNQFKKVKGIIDSDANRKYIIPSAPGKRTNKDYKITDLLYLCNAHVKNGIPFDDVFKLISQRYTEIVSELNIDMDIAYYLEKVKKNIENGASSDYAASRGEYLNGVILAKYLNAEFIDAAEVIFFDKSGCFDEKKSYEKIKEKVLSCNKAVIPGFYGSSFNGDVKTFSRGGSDVTGSIISAGVNADLYENWTDVSGFLMADPRIVENPKTISKISYKELRELSYMGATVLHEEAIFPVKDSGIPINIKNTNKPSDPGTLILSDTHKEINLGTITGIAGKKNFTVIAIEKALLNSEVGFCRKILSILEMYGVSFEHMPSGVDSVSLVIEDCKLDGKCDKIIEEIKKQCNPDSIEIHPNMALVATVGTGMAKTKGIANKIFTALSKENVNIRMIDQGSSEINVIVGVETVDFEKAVKSIYNAFNEGHHHHHH | soluble
MSATFSPTAVTDLKDIQDVERLMGRIKEARAAVGEVIFGQEAVVDEVLVTLLAGGHALLIGLPGLAKTKLVQTLGTVVGLRDKRVQFTPDLMPADILGSEVLEEDAAGQRGFRFLPGPVFCQLLMADEINRASPRTQSALLQAMQEHRVSVAGHYHDLPAPFHVLATQNPIEQEGTYPLPEAQLDRFLMQVDVGYPDEAAERRMLAATTGVHQPEARAVMTPAELQAAQALVRRVPVGDSVVDAILSLVRAGRPESSPLPEVRDWVAWGPGPRASQALTLAVRARALLDGRFAPSIEDVIALAHPILRHRMALSFGARADGVTLGRVVDRLIDKIA | soluble
MKPKKRQMEYLTRGLIAVQTEQGVFVSWRFLGTDHETTAFHLYRDGKRITRDPIAESTNFLDQNGTADSVYQVAAVNKGREEKLSKKARVWQENVLEVPLAKPEGGVTPDGKPYTYSANDASVGDIDGDGEYEMILKWDPSNSKDNAHDGYTGEVLIDAYKLDGTFLWRINLGRNIRAGAHYTQFMVYDLDGDGKAEIAMKTADGTTDGKGHIIGDEQADFRNEQGRILSGPEYLTVFKGETGEALTTVEYEPPRGKLEDWGDGYGNRMDRFLAGTAYLDGERPSLVMARGYYTRTVLVAYDFRNGRLKKRWVFDSNQPGHEAYAGQGNHSLSVADVDGDGKDEIIYGAMAVDHDGTGLYSTGLGHGDAMHVGDLDPSRKGLEVFQVHEDATKPYGLSLRDAGTGEILWGVHAGTDVGRGMAAHIDPSYKGSLVWGIDPPGNDGMSYGLFTSKGEKISDKAPSSANFAIWWDGDLVRELLDHDWDGTIGRPKIEKWDAENGCLKTIFQPAGVLSNNGTKGNPVLQANLFGDWREEVIWRTEDSSALRIYTTTHLTRHCFYTLMHDPVYRLGIAWQNTAYNQPPHTSFYLGTGMKKPPKPALYIAGSKAEAPLLEHHHHHH | soluble
MKMELKEGGKIFFRWFRKTFGEEVTDEGIIHRLEPPNLIEFSWNTYEDGFRSRVKMEFFPSSYNGTWVQVEDHTIVLNEEDMKIKLECAVGWGEMLTLAKIWIEYGISTLENP | not soluble
MELAQEARELGCWAVEEMGVPVAARAPESTLRRLCLGQGADIWAYILQHVHSQRTVKKIRGNLLWYGHQDSPQVRRKLELEAAVTRLRAEIQELDQSLELMERDTEAQDTAMEQARQHTQDTQRRALLLRAQAGAMRRQQHTLRDPMQRLQNQLRRLQDMERKAKVDVTFGSLTSAALGLEPVVLRDVRTACTLRAQFLQNLLLPQAKRGSLPTPHDDHFGTSYQQWLSSVETLLTNHPPGHVLAALEHLAAEREAEIRSLCSGDGLGDTEISRRAGGLWVCWSPSGAPS | soluble
EWVAPTLSQKAENIKAAAINGKISTGNTGLWLKEKNSIINVREMLPDHTLLGIKIWARNDKNELAEAVEADSAVLNSDGSWQLKNIRRSTLGEDKVEVSIAAEENWPISVKRNLMDVLLVKPDQMSVGELTTYIRHLQNNSQNTRIYAIAWWRK | not soluble
MDRFENMNAFVRVVETGSISAAADRMDIAKSVVSRRLKELEEHLGVELFHRTTRQMNLTDSGRAFYQQSVRILADVLEAEHATSQFHGRLKGHLKVAVPLSFGLMHLGAAISTFLQTHPDIEFDLDFNDRQVDLLAEGFDLAIRIANLPDSSLIARRLAPIQAVMCASPAYLERMGTPQAPEELIRHRCLVYNLVSHSDNWNVYGTTGELIKTRIIPYLKASNGEFLRDAAVDGLGIVLLPTFIVYREIQRGALIPILTGYHYAQLAAYAIYPQTRHLSQRVRAFVDFLSQRFEGMPYWDACLNQ | not soluble
MRARSDAGGQSVKSRTSNRSRSSRRSRVRSSISALVDNPQARPRELPVLCGWPVVRVEPVCEFVPEPVCGQAEVLGEPAAAHRVTSARRSPSTTVCSRSQKASAVVISSVSSVARVRRASVSSVDATTA | not soluble
DDGDCKNIYRYSPKDGKFEKLNLETDVTSAFALSEYNPGIAAYIGQSDYNAGVAYLYDMKKKTSSLLADPMKPILEKIELGKTEPWNFTASDGTVITGKMCLPPNFDPNKKYPMIVYYYGGTTPTTRGISNPYCAQLFASRDYVVYVIQPSGTIGFGQEFSARHVNAWGKRTADDIIEGTKQFCKEHPFVDEKKIGCLGASYGGFMTQYLQTQTDIFAAAVSHAGISDVTSYWGEGYWGYSYNAIAAADSYPWKDPDLFTKQGSLFNADKINTPLLLLHGTVDTNVPIGESIQLFNALKILGKTVEFVTVDGENHFISDYDKRIKWHNSIMAWFARWLQ | not soluble
MKKHGVLNSEIAAVLASLGHTDTVVIADCGLPIPDGVKRIDLAVEIGKPSFLEVLQVVADDMAIEKVTLAEEVIINNAEVNKEIERKLIEPAFEYVSHEQFKEHTKKAKAIIRTGEATPYANVILHAGVIF | not soluble
MSLPRITALRTIRLPERPKLIWVEVETEDGLTGLGETFRGAQAVEAVLHEQTAPAIIGRAAENITSISSELLNPYVGFGSSSAEVRAASAVDIALWDLAGQRAGVPLHVALGGAARDRVPVYATCAGYDFNTSLGGRRSIGSAELSTGPYDDQVAFMRDAGVLAESLVAEGYAAMKIWPFDDFASITPHHISLTDLKDGLEPFRKIRAAVGQRIEIMCELHSLWGTHAAARICNALADYGVLWVEDPIAKMDNIPAVADLRRQTRAPICGGENLAGTRRFHEMLCADAIDFVMLDLTWCGGLSEGRKIAALAETHARPLAPHDCTGPVALMAGLHLALHAPTAIFQEVVRASLATWYADLVDHLPVIQEGIALAPTRPGLGTALLPHVRKIAGAVVRESGKPREGHHHHHH | soluble
MIHTLAKCEWIKKSLPLCLIGDSGTGKSHLLIALGTEAAMAGYRVKYVLATKLVNELVEAADEKQLTKTIARYGRVDLLCIDELGYMELDRRGAELLFQVLTEREEKNSVAIASNESFSGWTKTFTDPRLCAAIVDRLTFGGNIIETGTDSYRLATTRARAEQQAVVLEHHHHHH | not soluble
FHPHTKGSQILMDLSHKAVKRQASFCNAITFSNRPVLIYEQVRLKITKKQCCWSGALRLGFTSKD | not soluble
MFSFNMFDHPIPRVFQNRFSTQYRCFSVSMLAGPNDRSDVEKGGKIIMPPSALDQLSRLNITYPMLFKLTNKNSDRMTHCGVLEFVADEGICYLPHWMMQNLLLEEGGLVQVESVNLQVATYSKFQPQSPDFLDITNPKAVLENALRNFACLTTGDVIAINYNEKIYELRVMETKPDKAVSIIECDMNVDFDAPLGYKEPERQVQHEESTEGEADHSGYAGELGFRAFSGSGNRLDGKKKGVEPSPSPIKPGDIKRGIPNYEFKLGKITFIRNSRPLVKKVEEDEAGGRFVAFSGEGQSLRKKGRKP | soluble
MGSSHHHHHHSSGLVPRGSHMSQFSFTKMHGLGNSYIYVNMFEEQIPEEDLALVAEKVSNINTGIGADGMILICPSDVAPVKMRMFNNDGSEGKSCGNGLRCVAKYAYEHKLVEDTVFTIETLAGIVTAEVTVEEGKVTLAKIDMGAPRLTRAEIPMLGEGETPFIRENFLYNNHRYAFTAVSMGNPHAVIFVDDVEQAPLTTLGPVLETHEMFPERVNVEFIEILNEEEMNFRVWERGSGVTQACGTGACAAVVASILNGKMERGKEITVHLAGGDLMIAWTEEGNVLMKGPAEVICRGVYEYKIEA | soluble
MALVPYEESAAIGLQKFHKPLATFSFANHTIQIRQDWRQLGVAAVVWDAAVVLSMYLEMGAVELRGCSAVELGAGTGLVGIVAALPGAQVTITDRKVALEFLKSNVEANLPPHIQPKAVVKELTWGQNLESFSPGEFDLILGADVIYLEDTFTDLLQTLGHLCSNNSVILLACRIRYERDSNFLTMLERQFTVSKVHYDPEKDVHIYKAQKRNQREDL | not soluble
MAGDPMAHITRFEAPWFLMISKKQYKWTVRPNAGPHSIEKSIPLAVVIRDYLKLAGTIREAKHIIFDGKVLVDGKVRKDYKYPVGLMDIVSIPSADLYFRVLPDNVRFMRFSKISADEARYKYVRIINKTTIKEGRIQLNLEDGRNILVDKETAKNFKTLMTLKIELPSQQILDSFTISERSYAIFVGGRNVGIHGIVKNINLSKFKSRKYSVITLESRDGNTYQTNIMNVMSIGREKSDLRVDLEHHHHHH | soluble
MGSDKIHHHHHHMYCGVPEEDPDKLVALILSGGQSSRMGTDKGSMELNGERLVERAGNLCASAGLPFYYSINASQNQQYLNFLPADALIVDTLDDIKGPLAGLLSFYVKYPNTDVLLLPCDMIHLGKSILSDLVQAYETMSIGHDIIVYQYANEIIEPMPGIYTSEALRKIYWLFLSGDLTRFSLKYCIEISNSFFIPIKKEAEVLFKNINSPEDITPSK | not soluble
MTEKINIQEVLVVEGKDDTANLRRFYEVDTYETRGSAITEEDLERINRLNDLRGVIVLTDPDYNGERIRKLIMAAVPTARHAFLNRNEAVPSSKSKGRSLGVEHANFEDLQKALAHVTQQYDDESYFDIRQTDLIRLGLLMASDSRKRREYLGEKLRIGYANGKQLLKRLELFGITLAEVEEVMETYEE | not soluble
MTAQPVETIKIDSEAGELGFERLGVLIKEYKPEKVVLGLPKHMNGDEGIRAEASRDYGTKLANEFGLEVAYQDERLTTAQAEKVLIDGGVRRKERKKSIDKLAAVLILQNYLDAHALKL | not soluble
GPGSMTTAASEGIVSREQLQMMLHVILHSTDNNERRNVEKSVVQLLTTPSTLTLLMVMLRDVQGSSPGVRQLAAVLLRKKVLSLWRTIPSESRGDFKGALLEQLGCEPVKAVRLALAHLVTRVAKADAMDEDGGWPELNYAIRAAVIDPRAEMRELAMVLAYSVAEVMSEADTHCLPVVEAVLQGMLDSEDAVQRSAVKAVGTLFVFMRGQTKVWEQLLQQLVPQCLALLTKCGTEETKTNLCVDVLDLLEQLVEDLSVKKHGALLRSVALEVLSVMTNGAIQPRVRQSCAEVLASLVNQKPKFVSTTVLEPLVSACVQVMSEDNAISLPEVAHTEGMENCDDSQSDENDAADMLHVDPPCLFAGRLLSTIATKVAAKSFTGALLPLISPVAQSPQAVGPTGAKSFDPRSCLFGRG | not soluble
MHLPPKLALTTGVLLVALPLATPAWGQPPTPASPLVQQLNNGNWLDPKEAETLRDELYYQRAIHAYMTMLPALNVIGMRDGSEKVFGAGYNVLPVWKERMDARTMVPTPNADVIYSMSYLDLKKTGPLVVKAPANVIGMFTDFFQRTLTDVGAIGPDRARGGLYLILPPDYDGHVPSSYFVVKSPTYNVFLFFRTIMGQGKGKPDPAPAVKAAETTRVYPLWAEEKDIKPMEFPDGSGKHINMMYPVDQEYWTKLKEFVDYEPVSAIDPELRGVLASIGIVKGQPFKPTAREQELLKRAVETAPKMILAMRQLGREDKRHLYYKDRQWERAWAGATAEWMQDSYLDVNQRATFFQIAYSSAPAMVMRTTGAGSKYPFTARDANGEFLNGSATYKLRMPPDAPAALFWAVTAYNVTDGTMPETDQLMPSTNGYYDIPKQKDGSTEIWFGPQKPADVADAAFIKTIPNRNFLVTLRLYGAEDAFYDQTWKPDDVVKVKLEHHHHHH | not soluble
